From patent US20100029568A1, “TIGHTER-BINDING C-PEPTIDE INHIBITORS OF HIV-1 ENTRY” (priority 2007, published 2010)

What was measured:
[1] = target: Res 4 (SDTV) Env from HIV-1 strain HXB2 (HIV-1 strain HXB2) (UniProt P04578); experiment: cell-based or functional assay
[2] = target: wild type Env (gp120/gp41) from HIV-1 strain HXB2 (HIV-1 strain HXB2) (UniProt P04578); experiment: cell-based or functional assay

T20 (peptide)
IC50, nM; inhibitory potency against pseudotyped HIV-1 [1]: 900 nM | IC50, nM; inhibitory potency against pseudotyped HIV-1 [2]: 2.3 nM
